Here are results for 2 molecules from patent US20250313648A1 (REGENTS OF THE UNIVERSITY OF MINNESOTA, published 2025).

The target of assay [1] is T1, chondroitin sulfate proteoglycan 4 (CSPG4) (human, UniProt Q6UVK1 30-2322).
T1 construct: whole, on cells; Endogenous full-length CSPG4 of human ovarian cancer cell lines, on the cell surface or in cell lysates for western blot; also called CSPG4 core protein
Briefly: identified by the methods of Example 6 (hybridoma raised against the CSPG4 fragment).

In assay [2] the target is T1, chondroitin sulfate proteoglycan 4 …. Briefly: western blot on mock and CSPG4-CRISPR cell lysates; immunofluorescence of cells. On the procedure: FIGS. 1A-1D. Antibody 7H5A2 targets CSPG4. FIG. 1A) Amino acid sequence of recombinant protein target used to generate antibody 7H5A2 (SEQ ID NO:34). Black text denotes CSPG4 region (SEQ ID NO:33), the lighter gray text corresponds to human FC sequence for protein purification. […] Cells are harvested in lysis buffer and 40 μg protein was loaded in each well from the indicated mock and CSPG4-CRISPR cell lines. Alpha-tubulin is included as a loading control. FIG. 1D) Immunofluorescence staining of HEY parent cells with antibody 7H5A2. Red bar=10 μm. Magnification 600×.
Generation of novel CSPG4 antibody: CSPG4-specific mouse monoclonal antibody 7H5A2 was generated by Promab Biotechnologies Inc (Richmond, CA) by injection of a recombinant CSPG4 protein immunogen corresponding to aa 1538-2221 of the CSPG4 core protein extracellular domain, expressed and purified from a eukaryotic expression system (see FIG. 1A). The specificity of the antibody was determined by screening against CSPG4 wild type and knockout cell lysates via western blot and cell staining via immunofluorescence (see FIGS. 1B and 1C). 7H5A2 is isotype IgG1.
Background: In western blotting, separated proteins are transferred to a membrane and probed.

T1 sequence (Q6UVK1 30-2322): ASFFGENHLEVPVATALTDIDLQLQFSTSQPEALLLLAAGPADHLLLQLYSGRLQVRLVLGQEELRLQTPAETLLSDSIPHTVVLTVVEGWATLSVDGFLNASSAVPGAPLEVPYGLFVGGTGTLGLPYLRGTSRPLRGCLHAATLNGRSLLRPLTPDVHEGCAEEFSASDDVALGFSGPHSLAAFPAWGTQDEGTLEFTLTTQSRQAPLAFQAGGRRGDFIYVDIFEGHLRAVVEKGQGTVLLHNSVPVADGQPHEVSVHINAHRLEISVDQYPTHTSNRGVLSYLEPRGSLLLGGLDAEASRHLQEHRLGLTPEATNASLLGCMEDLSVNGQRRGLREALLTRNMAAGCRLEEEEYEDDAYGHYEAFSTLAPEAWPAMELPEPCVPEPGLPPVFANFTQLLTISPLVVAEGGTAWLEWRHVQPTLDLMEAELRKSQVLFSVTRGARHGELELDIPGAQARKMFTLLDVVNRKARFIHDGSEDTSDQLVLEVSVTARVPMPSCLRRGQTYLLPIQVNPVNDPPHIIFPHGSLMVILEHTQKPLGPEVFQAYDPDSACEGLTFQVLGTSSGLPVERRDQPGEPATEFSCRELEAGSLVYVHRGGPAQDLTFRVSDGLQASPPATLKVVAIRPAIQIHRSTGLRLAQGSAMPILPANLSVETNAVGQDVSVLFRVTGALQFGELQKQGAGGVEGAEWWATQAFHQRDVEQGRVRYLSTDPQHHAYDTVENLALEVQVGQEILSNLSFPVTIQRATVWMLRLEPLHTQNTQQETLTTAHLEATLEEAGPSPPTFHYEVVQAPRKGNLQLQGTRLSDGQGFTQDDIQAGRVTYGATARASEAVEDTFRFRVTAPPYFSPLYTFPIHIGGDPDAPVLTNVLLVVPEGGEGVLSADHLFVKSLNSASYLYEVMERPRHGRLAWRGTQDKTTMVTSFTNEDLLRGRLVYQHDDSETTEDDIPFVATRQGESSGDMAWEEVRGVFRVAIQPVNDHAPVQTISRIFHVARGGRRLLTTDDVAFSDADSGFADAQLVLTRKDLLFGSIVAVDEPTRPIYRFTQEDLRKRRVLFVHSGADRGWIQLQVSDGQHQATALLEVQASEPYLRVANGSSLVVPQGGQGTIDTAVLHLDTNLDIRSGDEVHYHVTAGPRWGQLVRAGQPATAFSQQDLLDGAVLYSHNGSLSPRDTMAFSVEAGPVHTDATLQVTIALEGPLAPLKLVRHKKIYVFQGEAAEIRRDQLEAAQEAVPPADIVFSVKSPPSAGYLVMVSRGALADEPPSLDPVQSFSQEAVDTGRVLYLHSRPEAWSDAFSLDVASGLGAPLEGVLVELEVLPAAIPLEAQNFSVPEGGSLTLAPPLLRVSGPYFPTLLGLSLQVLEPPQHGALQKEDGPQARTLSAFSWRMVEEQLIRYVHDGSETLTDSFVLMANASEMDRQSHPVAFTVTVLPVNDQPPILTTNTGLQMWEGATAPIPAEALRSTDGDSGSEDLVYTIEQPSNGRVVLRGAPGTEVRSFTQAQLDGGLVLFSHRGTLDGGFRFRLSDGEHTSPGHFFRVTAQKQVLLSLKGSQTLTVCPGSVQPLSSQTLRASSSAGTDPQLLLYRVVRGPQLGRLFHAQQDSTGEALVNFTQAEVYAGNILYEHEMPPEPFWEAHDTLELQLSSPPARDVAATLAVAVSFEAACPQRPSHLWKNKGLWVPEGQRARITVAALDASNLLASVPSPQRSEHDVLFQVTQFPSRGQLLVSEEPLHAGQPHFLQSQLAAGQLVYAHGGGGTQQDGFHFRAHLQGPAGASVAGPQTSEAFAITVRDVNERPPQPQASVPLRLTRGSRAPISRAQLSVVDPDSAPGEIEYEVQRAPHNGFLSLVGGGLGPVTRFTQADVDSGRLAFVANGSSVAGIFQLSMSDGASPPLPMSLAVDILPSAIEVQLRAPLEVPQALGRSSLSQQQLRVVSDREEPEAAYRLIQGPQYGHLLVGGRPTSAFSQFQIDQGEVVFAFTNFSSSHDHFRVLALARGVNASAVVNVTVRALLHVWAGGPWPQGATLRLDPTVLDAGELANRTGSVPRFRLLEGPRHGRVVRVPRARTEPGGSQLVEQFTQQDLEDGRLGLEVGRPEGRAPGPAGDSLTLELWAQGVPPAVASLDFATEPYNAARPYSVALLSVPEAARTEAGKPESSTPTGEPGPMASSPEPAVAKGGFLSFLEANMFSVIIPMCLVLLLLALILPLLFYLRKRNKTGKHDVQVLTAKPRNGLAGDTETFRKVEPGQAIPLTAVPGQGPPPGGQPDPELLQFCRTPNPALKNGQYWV

B1: anti-CSPG4 antibody 8G5A6 (antibody, V domains shown)
VH: EVQLQQSGPDLVKPGASVKISCKASGYSFTVYYMNWVKQSHGKSLEWIGRIDPNDGGASYNQKFKGKAILTVDKSSGTAYMELRSLTSEDSAVYYCARRDYYGSKDYWGQGTTLTVSS
VL: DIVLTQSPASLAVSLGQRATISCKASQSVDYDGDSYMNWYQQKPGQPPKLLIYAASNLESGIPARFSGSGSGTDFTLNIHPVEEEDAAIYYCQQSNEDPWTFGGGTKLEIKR
B1: the binding result in assay [1] was “binds”.

B2: CSPG4-specific mouse monoclonal antibody 7H5A2 (antibody, IgG1, V domains shown)
VH: QVQLQQSGAELVRPGSSVKISCKASGFAFSNYWMNWVKQRPGQGLEWIGQIFPGDGDTNYNGKFKGKATLTADKSSSTAYMQLISLTSEDSAVYFCVRESDWGRGTTLTVSS
VL: DIQMTQTTSSLSASLGDRVTISCSASQGINNYLNWYQQTPDGTVKLLIFYTSSLQSGVPSRFSGSGSGTDYSLTISNLEPEDIATYYCQQYSKLPFTFGSGTKLEIKR
notes: also called anti-CSPG4 antibody 7H5A2
As for B2, the binding result in assay [2] was “binds”.
